Results: article PMC3906306 (mAbs, 2013)
One block for each molecule: values may come before it.

Legend:
[1] = target: EGFR extracellular domain-Cλ fusion protein (Homo sapiens) (UniProt P00533); assay: SPR
[2] = target: EGFR extracellular domain-Cλ fusion protein (Homo sapiens, UniProt P00533); assay: SPR

Kd [1]: 4 nM
Molecule: hu225 VH:F100cY (antibody)

Kd [1]: 1.6 nM
Molecule: hu225 VH:T97D (antibody)

Kd [1]: 3.1 nM
Molecule: hu225 VH:V50L (antibody)

Kd [1]: 3 nM
Molecule: hu225 VL:A25V (antibody)

Kd [1]: 6.8 nM
Molecule: hu225 VH:Y32R (antibody)

Kd [1]: 1.9 nM
Molecule: hu225 VH:G33D (antibody)

Kd [1]: 3.9 nM
Molecule: hu225 VH:T57G (antibody)

Kd [2]: 1.8 nM
B1: hu225 VL:G30Y (antibody, V domains shown)
VH: EVQLVESGGGLVQPGGSLRLSCAASGFSLTNYGVHWVRQAPGKGLEWLGVIWSGGNTDYNTPFTSRLTINKDNSKNTVYLQMNSLRAEDTAVYYCARALTYYDYEFAYWGQGTLVTVSS
VL: DILLTQSPGTLSLSPGERATLSCRASQSIYTNIHWYQQKPGQAPRLLIKYASESISGIPDRFSGSGSGTDFTLTISRLEPEDFAVYYCQQNNNWPTTFGQGTKLEIK
